Assay results: IntAct's records for PubMed 25910212

B1: U4/U6 small nuclear ribonucleoprotein Prp31 (Homo sapiens), Q8WWY3 (parent)
chain: MSLADELLADLEEAAEEEEGGSYGEEEEEPAIEDVQEETQLDLSGDSVKTIAKLWDSKMFAEIMMKIEEYISKQAKASEVMGPVEAAPEYRVIVDANNLTVEIENELNIIHKFIRDKYSKRFPELESLVPNALDYIRTVKELGNSLDKCKNNENLQQILTNATIMVVSVTASTTQGQQLSEEELERLEEACDMALELNASKHRIYEYVESRMSFIAPNLSIIIGASTAAKIMGVAGGLTNLSKMPACNIMLLGAQRKTLSGFSSTSVLPHTGYIYHSDIVQSLPPDLRRKAARLVAAKCTLAARVDSFHESTEGKVGYELKDEIERKFDKWQEPPPVKQVKPLPAPLDGQRKKRGGRRYRKMKERLGLTEIRKQANRMSFGEIEEDAYQEDLGFSLGHLGKSGSGRVRQTQVNEATKARISKTLQRTLQKQSVVYGGKSTIRDRSSGTASSVAFTPLQGLEIVNPQAAEKKVAEANQKYFSSMAEFLKVKGEKSGLMST
partner: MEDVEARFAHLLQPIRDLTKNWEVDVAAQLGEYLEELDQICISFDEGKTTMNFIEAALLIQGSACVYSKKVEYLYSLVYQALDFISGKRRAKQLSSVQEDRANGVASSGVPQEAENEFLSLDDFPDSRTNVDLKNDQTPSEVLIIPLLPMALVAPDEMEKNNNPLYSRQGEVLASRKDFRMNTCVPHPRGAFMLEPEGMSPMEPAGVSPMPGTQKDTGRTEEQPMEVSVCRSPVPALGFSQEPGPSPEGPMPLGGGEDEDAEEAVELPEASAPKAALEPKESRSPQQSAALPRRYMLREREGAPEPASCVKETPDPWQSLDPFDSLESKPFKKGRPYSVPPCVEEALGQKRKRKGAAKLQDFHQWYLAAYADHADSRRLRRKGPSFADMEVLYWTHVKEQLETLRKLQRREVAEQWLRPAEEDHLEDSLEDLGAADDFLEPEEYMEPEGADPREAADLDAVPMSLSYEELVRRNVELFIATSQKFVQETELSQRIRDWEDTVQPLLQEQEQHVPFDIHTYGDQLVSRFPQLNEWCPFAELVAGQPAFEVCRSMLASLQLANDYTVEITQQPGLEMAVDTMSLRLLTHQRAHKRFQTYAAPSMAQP
B2: EGF-containing fibulin-like extracellular matrix protein 1 (Homo sapiens), Q12805 (parent)
chain: MLKALFLTMLTLALVKSQDTEETITYTQCTDGYEWDPVRQQCKDIDECDIVPDACKGGMKCVNHYGGYLCLPKTAQIIVNNEQPQQETQPAEGTSGATTGVVAASSMATSGVLPGGGFVASAAAVAGPEMQTGRNNFVIRRNPADPQRIPSNPSHRIQCAAGYEQSEHNVCQDIDECTAGTHNCRADQVCINLRGSFACQCPPGYQKRGEQCVDIDECTIPPYCHQRCVNTPGSFYCQCSPGFQLAANNYTCVDINECDASNQCAQQCYNILGSFICQCNQGYELSSDRLNCEDIDECRTSSYLCQYQCVNEPGKFSCMCPQGYQVVRSRTCQDINECETTNECREDEMCWNYHGGFRCYPRNPCQDPYILTPENRCVCPVSNAMCRELPQSIVYKYMSIRSDRSVPSDIFQIQATTIYANTINTFRIKSGNENGEFYLRQTSPVSAMLVLVKSLSGPREHIVDLEMLTVSSIGTFRTSSVLRLTIIVGPFSF
B3: U4/U6 small nuclear ribonucleoprotein Prp31 (Homo sapiens), Q8WWY3 (parent)
chain: B1 chain
partner: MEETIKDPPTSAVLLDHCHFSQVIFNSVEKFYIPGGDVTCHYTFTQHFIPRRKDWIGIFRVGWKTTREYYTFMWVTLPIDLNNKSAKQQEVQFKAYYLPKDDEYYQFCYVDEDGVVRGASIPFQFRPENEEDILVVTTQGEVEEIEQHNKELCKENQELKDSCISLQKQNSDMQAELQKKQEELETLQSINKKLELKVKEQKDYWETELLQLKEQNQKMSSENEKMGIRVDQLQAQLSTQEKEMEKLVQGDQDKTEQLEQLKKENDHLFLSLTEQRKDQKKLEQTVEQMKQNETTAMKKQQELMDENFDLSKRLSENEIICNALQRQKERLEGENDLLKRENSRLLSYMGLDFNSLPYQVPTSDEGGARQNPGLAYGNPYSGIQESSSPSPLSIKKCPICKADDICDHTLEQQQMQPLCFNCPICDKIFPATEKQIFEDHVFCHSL
B4: Glycophorin-B (Homo sapiens), P06028 (parent)
chain: MYGKIIFVLLLSEIVSISALSTTEVAMHTSTSSSVTKSYISSQTNGETGQLVHRFTVPAPVVIILIILCVMAGIIGTILLISYSIRRLIKA
B5: Hepatocyte nuclear factor 4-alpha (Homo sapiens), P41235-3 (parent)
chain: MRLSKTLVDMDMADYSAALDPAYTTLEFENVQVLTMGNDTSPSEGTNLNAPNSLGVSALCAICGDRATGKHYGASSCDGCKGFFRRSVRKNHMYSCRFSRQCVVDKDKRNQCRYCRLKKCFRAGMKKEAVQNERDRISTRRSSYEDSSLPSINALLQAEVLSRQITSPVSGINGDIRAKKIASIADVCESMKEQLLVLVEWAKYIPAFCELPLDDQVALLRAHAGEHLLLGATKRSMVFKDVLLLGNDYIVPRHCPELAEMSRVSIRILDELVLPFQELQIDDNEYAYLKAIIFFDPDAKGLSDPGKIKRLRSQVQVSLEDYINDRQYDSRGRFGELLLLLPTLQSITWQMIEQIQFIKLFGMAKIDNLLQEMLLGGPCQAQEGRGWSGDSPGDRPHTVSSPLSSLASPLCRFGQVA
B6: EF-hand domain-containing protein 1 (Homo sapiens), Q5JVL4 (parent)
chain: MVSNPVHGLPFLPGTSFKDSTKTAFHRSQTLSYRNGYAIVRRPTVGIGGDRLQFNQLSQAELDELASKAPVLTYGQPKQAPPADFIPAHVAFDKKVLKFDAYFQEDVPMSTEEQYRIRQVNIYYYLEDDSMSVIEPVVENSGILQGKLIKRQRLAKNDRGDHYHWKDLNRGINITIYGKTFRVVDCDQFTQVFLESQGIELNPPEKMALDPYTELRKQPLRKYVTPSDFDQLKQFLTFDKQVLRFYAIWDDTDSMYGECRTYIIHYYLMDDTVEIREVHERNDGRDPFPLLMNRQRVPKVLVENAKNFPQCVLEISDQEVLEWYTAKDFIVGKSLTILGRTFFIYDCDPFTRRYYKEKFGITDLPRIDVSKREPPPVKQELPPYNGFGLVEDSAQNCFALIPKAPKKDVIKMLVNDNKVLRYLAVLESPIPEDKDRRFVFSYFLATDMISIFEPPVRNSGIIGGKYLGRTKVVKPYSTVDNPVYYGPSDFFIGAVIEVFGHRFIILDTDEYVLKYMESNAAQYSPEALASIQNHVRKREAPAPEAESKQTEKDPGVQELEALIDTIQKQLKDHSCKDNIREAFQIYDKEASGYVDRDMFFKICESLNVPVDDSLVKELIRMCSHGEGKINYYNFVRAFSN
partner: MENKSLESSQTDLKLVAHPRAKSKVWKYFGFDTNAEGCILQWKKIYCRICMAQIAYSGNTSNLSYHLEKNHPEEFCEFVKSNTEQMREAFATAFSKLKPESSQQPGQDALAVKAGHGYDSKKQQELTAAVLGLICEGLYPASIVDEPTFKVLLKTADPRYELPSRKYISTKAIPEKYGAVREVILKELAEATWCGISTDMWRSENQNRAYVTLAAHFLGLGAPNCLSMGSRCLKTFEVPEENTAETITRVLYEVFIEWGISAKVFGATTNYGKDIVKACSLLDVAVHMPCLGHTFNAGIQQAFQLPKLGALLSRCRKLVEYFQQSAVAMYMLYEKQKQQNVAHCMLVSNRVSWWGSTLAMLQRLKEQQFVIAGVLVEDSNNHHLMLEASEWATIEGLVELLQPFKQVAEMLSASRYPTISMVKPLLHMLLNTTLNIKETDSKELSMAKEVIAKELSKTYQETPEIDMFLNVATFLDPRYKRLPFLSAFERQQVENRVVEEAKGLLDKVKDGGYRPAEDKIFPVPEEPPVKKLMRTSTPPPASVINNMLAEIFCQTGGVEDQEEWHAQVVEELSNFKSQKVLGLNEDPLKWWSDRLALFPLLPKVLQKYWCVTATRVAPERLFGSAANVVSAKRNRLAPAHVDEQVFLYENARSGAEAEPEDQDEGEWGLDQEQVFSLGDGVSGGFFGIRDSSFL

Variants of: B1
Conditions: with cndh2_human NCAPH2, Q6IBW4

| effect of a mutation on the interaction | Variant |
| --- | --- |
| with no effect | L107V |

Variants of: B2
Conditions: with sgta_human SGTA

| effect of a mutation on the interaction | Variant |
| --- | --- |
| with no effect | R345W |

Variants of: B2
Conditions: with meox2_human MEOX2, P50222

| effect of a mutation on the interaction | Variant |
| --- | --- |
| with no effect | R345W |

Variants of: B3
Conditions: with caco2_human CALCOCO2, Q13137

| effect of a mutation on the interaction | Variant |
| --- | --- |
| with no effect | L107V |

Variants of: B4
Conditions: with ubql1_human UBQLN1, Q9UMX0

| effect of a mutation on the interaction | Variant |
| --- | --- |
| with no effect | T48M |

Variants of: B5
Conditions: with plpp2_human PLPP2, O43688

| effect of a mutation on the interaction | Variant |
| --- | --- |
| disrupting interaction strength | C102W |

Variants of: B5
Conditions: with if1ay_human EIF1AY

| effect of a mutation on the interaction | Variant |
| --- | --- |
| disrupting interaction strength | C102W |

Variants of: B5
Conditions: with dmd_human DMD

| effect of a mutation on the interaction | Variant |
| --- | --- |
| disrupting interaction strength | C102W |

Variants of: B6
Conditions: with zbed1_human ZBED1, O96006

| effect of a mutation on the interaction | Variant |
| --- | --- |
| with no effect | M448T |
| disrupting interaction strength | A394S |
| disrupting interaction strength | T508R |
